Laboratory results published in article PMC3880350, “The mononuclear metal center of type-I dihydroorotase from aquifex aeolicus” (BMC Biochemistry, 2013).
Positions count from the first letter of the chain named. In names and notes the source's numbering stands.

What was measured:
[1] = target: T1, A. aeolicus DHO-ATC complex (ATC active site) (Aquifex aeolicus, UniProt O66726); assay: X-ray crystal structure, […] Å; format: binding; settings: crystal soaked in 1 mM PALA, 15 mM dihydroorotate, pH 5, bisubstrate analogue, mutations only in the DHO partner
T1 construct: gene pyrB; both with 3 kDa N-terminal His tag (pRSETC), E. coli BL21(DE3); with Dihydroorotase

[2] = target: T2, A. aeolicus DHO-ATC complex (DHO active site) (Aquifex aeolicus, UniProt O66990, H180A/H232A); assay: X-ray crystal structure, […] Å; format: binding; settings: crystal soaked in 15 mM dihydroorotate, 1 mM PALA, pH 5; DHO active site with one zinc
T2 construct: gene pyrC; both subunits full length with 3 kDa N-terminal His tag (pRSETC), expressed separately in E. coli BL21(DE3), mixed equimolar, dodecamer (6 DHO + 6 ATC) isolated by gel filtration; DHO 422 residues; with Aspartate carbamoyltransferase catalytic subunit

[3] = target: the molecule itself; assay: crystal structure; DHO double mutant-ATC complex, hanging drop, room temperature, 30% ethylene glycol with barium chloride; crystals soaked in 1 mM PALA and 15 mM dihydroorotate at pH 5; 2.2 Å
[4] = target: T3, Aquifex aeolicus dihydroorotase (DHO) subunit, His180Ala/His232Ala double mutant (Aquifex aeolicus, UniProt O66990 1-422, His180Ala | His232Ala); assay: SEC; purified subunits mixed in an equimolar ratio; complex isolated by gel filtration on a Sephacryl S-300 column; composition analysed by SDS-PAGE and ATC and DHO assays; settings: both partners purified
T3 construct: Dihydroorotase (pyrC) of Aquifex aeolicus with His180 and His232 replaced by alanine; made by PCR on the plasmid that encodes the DHO subunit; 422 C-alpha atoms in the structure; Same construct as m1 with the two point mutations; In the crystal one zinc and dihydroorotate in the active site; also called DHO Double Mutant; mutant DHO
T3 sequence: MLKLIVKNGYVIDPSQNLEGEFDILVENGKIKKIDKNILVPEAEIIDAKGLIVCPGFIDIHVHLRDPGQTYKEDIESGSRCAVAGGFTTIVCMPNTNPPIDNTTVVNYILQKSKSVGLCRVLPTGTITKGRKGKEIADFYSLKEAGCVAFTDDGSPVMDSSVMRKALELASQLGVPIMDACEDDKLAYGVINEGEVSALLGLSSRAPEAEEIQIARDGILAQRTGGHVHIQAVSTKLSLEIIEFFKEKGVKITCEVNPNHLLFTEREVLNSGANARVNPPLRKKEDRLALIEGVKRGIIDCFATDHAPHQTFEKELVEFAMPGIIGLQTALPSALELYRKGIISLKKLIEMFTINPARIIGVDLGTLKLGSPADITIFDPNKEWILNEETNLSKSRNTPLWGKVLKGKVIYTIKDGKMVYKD

[5] = target: T4, Aquifex aeolicus dihydroorotase (DHO) subunit, His180Ala mutant (Aquifex aeolicus, UniProt O66990 1-422, His180Ala); assay: as above; settings: both partners purified
T4 construct: Dihydroorotase (pyrC) of Aquifex aeolicus with His180 replaced by alanine; made by PCR on the plasmid that encodes the DHO subunit; Same construct as m1 with the point mutation
T4 sequence: T3 sequence with A232H

[6] = target: T5, Aquifex aeolicus dihydroorotase (DHO) subunit, wild type (Aquifex aeolicus, UniProt O66990 1-422); assay: as above; settings: both partners purified
T5 construct: Dihydroorotase (pyrC) of Aquifex aeolicus; gene amplified by PCR from the genome and inserted into pRSETC; One zinc ion per subunit; also called Wild Type DHO; A. aeolicus DHO
T5 sequence: T3 sequence with A180H, A232H

[7] = target: T6, Aquifex aeolicus dihydroorotase (DHO) subunit, His232Ala mutant (Aquifex aeolicus, UniProt O66990 1-422, His232Ala); assay: as above; settings: both partners purified
T6 construct: Dihydroorotase (pyrC) of Aquifex aeolicus with His232 replaced by alanine; made by PCR on the plasmid that encodes the DHO subunit; Same construct as m1 with the point mutation
T6 sequence: T3 sequence with A180H

[8] = substrate: O=C1C[C@@H](C(=O)O)NC(=O)N1; assay: colorimetric carbamoyl aspartate formation, saturation curve; format: biochemical, Aquifex aeolicus
From the text: colorimetric carbamoyl aspartate formation, saturation curve on A. aeolicus DHO-ATC complex (DHO active site)

[9] = 250 mM Tris acetate (Figure 7; Methods: 50 mM), pH 8.3, 72°C, mutant DHO reconstituted with native ATC

Molecule: O=C(O)C[C@H](NC(=O)CP(=O)(O)O)C(=O)O [PALA]
- X-ray crystal structure, 2.2 Å [1]: bisubstrate analog, N-phosphoacetyl L-aspartate (PALA) bound to the active site of the A. aeolicus ATC

Molecule: O=C1C[C@@H](C(=O)O)NC(=O)N1 [dihydroorotate]
- X-ray crystal structure, 2.2 Å [2]: one DHO subunit with one zinc atom and dihydroorotate in its active site

B1: Aquifex aeolicus aspartate transcarbamoylase (ATC) subunit (enzyme)
chain: MRSLISSLDLTREEVEEILKYAKEFKEGKEETIKASAVLFFSEPSTRTRLSFEKAARELGIETYLVSGSESSTVKGESFFDTLKTFEGLGFDYVVFRVPFVFFPYKEIVKSLNLRLVNAGDGTHQHPSQGLIDFFTIKEHFGEVKDLRVLYVGDIKHSRVFRSGAPLLNMFGAKIGVCGPKTLIPRDVEVFKVDVFDDVDKGIDWADVVIWLRLQKERQKENYIPSESSYFKQFGLTKERFEKVKLYMHPGPVNRNVDIDHELVYTEKSLIQEQVKNGIPVRKAIYKFLWT
notes: Aspartate transcarbamoylase (pyrB) of Aquifex aeolicus; gene amplified by PCR from the genome and inserted into pRSETC; 291 residues superposed in the structure; also called native ATC; pyrB product
- stoichiometry N [3]: 3
- binding result [4]: binds
- binding result [5]: binds
- binding result [6]: binds
- binding result [7]: binds

B2: A. aeolicus DHO-ATC complex (DHO active site) (Aquifex aeolicus VF5) (protein)
chain: T3 sequence with A180H, A232H
notes: both subunits full length with 3 kDa N-terminal His tag (pRSETC), expressed separately in E. coli BL21(DE3), mixed equimolar, dodecamer (6 DHO + 6 ATC) isolated by gel filtration; DHO 422 residues; with Aspartate carbamoyltransferase catalytic subunit
- Km ([8]; no exogenous zinc, 250 mM Tris acetate (Figure 4; Methods: 50 mM), pH 8.3, 75°C (Figure 4: 72°C), DHO reverse direction (hydrolysis)): 1520 ± 300 µM

B3: A. aeolicus DHO-ATC complex (DHO active site) (Aquifex aeolicus VF5; H180A) (protein)
chain: T3 sequence with A232H
notes: as for B2
- Km [8, 9]: 1650 ± 260 µM

B4: A. aeolicus DHO-ATC complex (DHO active site) (Aquifex aeolicus VF5; H232A) (protein)
chain: T3 sequence with A180H
notes: as for B2
- Km [8, 9]: 1340 ± 220 µM

B5: A. aeolicus DHO-ATC complex (DHO active site) (Aquifex aeolicus VF5; H180A/H232A) (protein)
chain: T3 sequence
notes: as for B2
- Km [8, 9]: 1550 ± 300 µM
